# From the supplement of paper PMC9112550, “Optimization of the antimicrobial peptide Bac7 by deep mutational scanning” (BMC Biology, 2022)
# Tested on: Escherichia coli TOP10
# Assay: shrunken log2 fold change of peptide-encoding DNA abundance (4.5 h post-induction vs induction); higher = less antimicrobial activity (less host growth inhibition)
# Conditions: time post-induction: 4.5 h; library: site-saturation at positions 5, 18, 19, 20
# 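Also: peptides expressed intracellularly from a pBAD plasmid library in pooled LB shake-flask culture, induced with 0.3% L-arabinose, DNA abundance read by NGS, three biological replicates, DESeq2 with apeglm shrinkage.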
row,Sequence,shrunken log2 fold change
1,RRIRCRPPRLPRPRPRPTCRPRP,0.211
2,RRIRHRPPRLPRPRPRPNDMPRP,-0.26
3,RRIRDRPPRLPRPRPRPLWKPRP,0.0179
4,RRIRCRPPRLPRPRPRPQANPRP,0.0603
5,RRIRIRPPRLPRPRPRPLRIPRP,-0.346
6,RRIRHRPPRLPRPRPRPKAAPRP,0.0902
7,RRIRHRPPRLPRPRPRPQGHPRP,-0.268
8,RRIRWRPPRLPRPRPRPLCMPRP,-0.177
9,RRIRCRPPRLPRPRPRPIQRPRP,0.0673
10,RRIRFRPPRLPRPRPRPAVGPRP,0.591
11,RRIRYRPPRLPRPRPRPMDEPRP,-0.115
12,RRIRMRPPRLPRPRPRPLIKPRP,0.0477
13,RRIRERPPRLPRPRPRPWRCPRP,-0.0332
14,RRIRLRPPRLPRPRPRPAMWPRP,0.373
15,RRIRLRPPRLPRPRPRPKQCPRP,-0.0836
16,RRIRIRPPRLPRPRPRPNNDPRP,-0.967
17,RRIRHRPPRLPRPRPRPCNSPRP,-0.0938
18,RRIRSRPPRLPRPRPRPKEMPRP,0.187
19,RRIRMRPPRLPRPRPRPIWAPRP,0.114
20,RRIRVRPPRLPRPRPRPFTFPRP,-0.0282
21,RRIRDRPPRLPRPRPRPGWFPRP,0.297
22,RRIRNRPPRLPRPRPRPQQGPRP,-0.159

row,Sequence,shrunken log2 fold change
1,RRIRLRPPRLPRPRPRPKGDPRP,0.182
2,RRIRHRPPRLPRPRPRPDENPRP,-0.225
3,RRIRYRPPRLPRPRPRPLIYPRP,-1.24
4,RRIRCRPPRLPRPRPRPCDVPRP,-0.0285
5,RRIRCRPPRLPRPRPRPTWKPRP,-0.114
6,RRIRNRPPRLPRPRPRPHPVPRP,-0.269
7,RRIRHRPPRLPRPRPRPCCHPRP,-0.707
8,RRIRARPPRLPRPRPRPDFHPRP,-0.0502
9,RRIRWRPPRLPRPRPRPTESPRP,0.189
10,RRIRNRPPRLPRPRPRPCQVPRP,-0.106
11,RRIRCRPPRLPRPRPRPDYVPRP,-1.26
12,RRIRNRPPRLPRPRPRPHVNPRP,-0.237
13,RRIRMRPPRLPRPRPRPAHKPRP,0.534
14,RRIRPRPPRLPRPRPRPRAVPRP,1.68
15,RRIRPRPPRLPRPRPRPQTSPRP,0.163
16,RRIRFRPPRLPRPRPRPPTDPRP,0.414
17,RRIRGRPPRLPRPRPRPYFRPRP,0.0786
18,RRIRDRPPRLPRPRPRPAYKPRP,-0.456
19,RRIRVRPPRLPRPRPRPYCFPRP,-0.736
20,RRIRIRPPRLPRPRPRPRKFPRP,-0.000367
21,RRIRLRPPRLPRPRPRPFDMPRP,-0.205
22,RRIRTRPPRLPRPRPRPLKRPRP,-0.236

row,Sequence,shrunken log2 fold change
1,RRIRVRPPRLPRPRPRPADVPRP,0.000571
2,RRIRTRPPRLPRPRPRPAHIPRP,0.0726
3,RRIRARPPRLPRPRPRPKTKPRP,0.0731
4,RRIRKRPPRLPRPRPRPCWSPRP,0.00256
5,RRIRVRPPRLPRPRPRPFLGPRP,-0.0486
6,RRIRARPPRLPRPRPRPSFCPRP,0.167
7,RRIRKRPPRLPRPRPRPWNYPRP,-0.154
8,RRIRQRPPRLPRPRPRPAIFPRP,-0.0662
9,RRIRVRPPRLPRPRPRPNWLPRP,-0.105
10,RRIRKRPPRLPRPRPRPEDEPRP,2.15
11,RRIRRRPPRLPRPRPRPKIFPRP,0.0586
12,RRIRYRPPRLPRPRPRPTDLPRP,-0.396
13,RRIRSRPPRLPRPRPRPDPDPRP,-0.0414
14,RRIRDRPPRLPRPRPRPWSGPRP,-0.0455
15,RRIRSRPPRLPRPRPRPYNDPRP,-0.41
16,RRIRLRPPRLPRPRPRPPLRPRP,0.386
17,RRIRYRPPRLPRPRPRPIWQPRP,-0.105
18,RRIRQRPPRLPRPRPRPGPGPRP,0.507
19,RRIRVRPPRLPRPRPRPSFNPRP,-0.411
20,RRIRSRPPRLPRPRPRPCCAPRP,0.115
21,RRIRRRPPRLPRPRPRPRVTPRP,0.766
22,RRIRQRPPRLPRPRPRPDQEPRP,0.0119

row,Sequence,shrunken log2 fold change
1,RRIRHRPPRLPRPRPRPAHRPRP,0.162
2,RRIRWRPPRLPRPRPRPKEIPRP,0.487
3,RRIRQRPPRLPRPRPRPEIRPRP,0.0114
4,RRIRERPPRLPRPRPRPPQAPRP,0.154
5,RRIRQRPPRLPRPRPRPCTKPRP,0.00259
6,RRIRIRPPRLPRPRPRPHQFPRP,-0.525
7,RRIRQRPPRLPRPRPRPYNQPRP,-0.536
8,RRIRQRPPRLPRPRPRPRGLPRP,0.00877
9,RRIRERPPRLPRPRPRPFWKPRP,-0.125
10,RRIRQRPPRLPRPRPRPIDMPRP,0.00643
11,RRIRDRPPRLPRPRPRPQCLPRP,0.0413
12,RRIRYRPPRLPRPRPRPLECPRP,-0.183
13,RRIRKRPPRLPRPRPRPQIMPRP,-0.103
14,RRIRARPPRLPRPRPRPNHDPRP,-0.141
15,RRIRYRPPRLPRPRPRPSIGPRP,-0.0122
16,RRIRGRPPRLPRPRPRPSFWPRP,0.66
17,RRIRARPPRLPRPRPRPATWPRP,0.37
18,RRIRNRPPRLPRPRPRPTDPPRP,0.162
19,RRIRLRPPRLPRPRPRPKVYPRP,-0.0494
20,RRIRVRPPRLPRPRPRPMYQPRP,-0.342
21,RRIRERPPRLPRPRPRPIKCPRP,-0.0487
22,RRIRIRPPRLPRPRPRPFRGPRP,-0.0233

row,Sequence,shrunken log2 fold change
1,RRIRYRPPRLPRPRPRPQMHPRP,-0.748
2,RRIRERPPRLPRPRPRPTIRPRP,-0.622
3,RRIRKRPPRLPRPRPRPIAHPRP,0.143
4,RRIRQRPPRLPRPRPRPNGGPRP,0.00705
5,RRIRVRPPRLPRPRPRPNLKPRP,-0.0252
6,RRIRVRPPRLPRPRPRPCMGPRP,-0.234
7,RRIRCRPPRLPRPRPRPNFCPRP,-0.157
8,RRIRQRPPRLPRPRPRPAHWPRP,0.261
9,RRIRNRPPRLPRPRPRPWAQPRP,-0.0776
10,RRIRDRPPRLPRPRPRPPGQPRP,0.0311
11,RRIRKRPPRLPRPRPRPNGSPRP,0.0677
12,RRIRSRPPRLPRPRPRPAVEPRP,0.39
13,RRIRDRPPRLPRPRPRPYPHPRP,1.85
14,RRIRPRPPRLPRPRPRPLWSPRP,-0.0489
15,RRIRKRPPRLPRPRPRPEEAPRP,3.85
16,RRIRLRPPRLPRPRPRPQVKPRP,-0.319
17,RRIRVRPPRLPRPRPRPFPAPRP,-0.121
18,RRIRNRPPRLPRPRPRPLTTPRP,-0.07
19,RRIRKRPPRLPRPRPRPTVEPRP,0.377
20,RRIRWRPPRLPRPRPRPVLDPRP,0.0956
21,RRIRQRPPRLPRPRPRPLFVPRP,-0.495
